From patent publication US7407939B2, “Protein kinase inhibitors comprising ATP mimetics conjugated to peptides or peptidomimetics” (CureGenics Ltd., priority 2001, dated 2008)
Like-named read-outs stand apart in the source and are kept apart here. *1 amine or outer side, *2 acyl side, *3 side chain or, on linkers, in order; H or OH if unused. Where a SMILES comes first, the peptide text is derived from it. Where no end group is shown, it is not given here. Side-chain parts run from the residue outwards. [ ]: non-standard residue; d: D form. The star is where a group is joined. X1 = 5‑aminoethylsulfonamide isoquinoline, O=S(=O)(NCCN*)c1cccc2cnccc12; Isoquinoline5sulfonyl = O=S(=O)(c1cccc2cnccc12)*; Ethylenediamine = C(CN[*:2])N[*:1]; hLeu = CC(C)CC[C@H](N)C(=O)O; Nle = CCCC[C@H](N)C(=O)O; Orn = NCCC[C@H](N)C(=O)O; Dab = NCC[C@H](N)C(=O)O; Nva = CCC[C@H](N)C(=O)O; Abu = CC[C@H](N)C(=O)O; Dap = NC[C@H](N)C(=O)O; Ava = NCCCCC(=O)O

Experiments:
PKA = target: T1, PKA (Bos taurus, UniProt P00517); assay: In vitro PKA kinase activity assay (kemptide / SPA beads); assay type: biochemical; parameters: % Inhibition PKA: concentration or dose not given beside the values; conditions: for % Inhibition PKA: plate screening; for PKA-kinase Assay 1, % inhibition of kinase activity / PKA-kinase Assay 2, % inhibition of kinase activity / inhibition at 1 µM: 1 μM compound concentration;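 for all read-outs here: Cell-free assay of purified PKA catalytic subunit phosphorylating the 7-mer kemptide substrate, run in MOPS buffer with magnesium acetate and BSA, with blank wells lacking enzyme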
T1 construct: purchased Promega

PKB = target: T2, PKB (Homo sapiens, UniProt P31749); assay: PKB in vitro kinase activity assay (soluble His-HA-PKB / SPA bead screening); assay type: biochemical; parameters: % Inhibition PKB I / % Inhibition PKB II: concentration or dose not given beside the values; conditions: for PKB-kinase (spa) Assay 1, % inhibition of kinase activity / PKB-kinase (spa) Assay 2, % inhibition of kinase activity / inhibition at 1 µM: 1 μM compound concentration
T2 construct: His; HA; made in house
T2 sequence (P31749 whole entry, species assumed): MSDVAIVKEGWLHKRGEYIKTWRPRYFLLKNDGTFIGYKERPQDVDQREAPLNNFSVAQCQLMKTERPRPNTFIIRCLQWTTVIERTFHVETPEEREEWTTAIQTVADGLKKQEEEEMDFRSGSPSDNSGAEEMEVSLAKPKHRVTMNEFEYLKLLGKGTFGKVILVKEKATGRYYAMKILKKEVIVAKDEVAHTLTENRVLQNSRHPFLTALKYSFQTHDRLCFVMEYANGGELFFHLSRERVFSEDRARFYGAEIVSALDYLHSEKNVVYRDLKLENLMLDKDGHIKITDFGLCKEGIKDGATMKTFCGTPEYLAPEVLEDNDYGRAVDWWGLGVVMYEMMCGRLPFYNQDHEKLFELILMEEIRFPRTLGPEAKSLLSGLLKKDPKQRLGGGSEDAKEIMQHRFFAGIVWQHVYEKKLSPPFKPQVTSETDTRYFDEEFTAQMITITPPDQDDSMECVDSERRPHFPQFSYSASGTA

[1] = plate screening, peptide moiety alone
[2] = chimeric PTR compounds (peptide conjugated to isoquinoline small molecule), read-out: PKA IC50
[3] = chimeric PTR compounds (peptide conjugated to isoquinoline small molecule), read-out: PKB IC50

| PKA-kinase Assay 1, % inhibition of kinase activity (PKA; Assay 1) [%] | PKA-kinase Assay 2, % inhibition of kinase activity (PKA; Assay 2) [%] | PKB-kinase (spa) Assay 1, % inhibition of kinase activity (PKB; Assay 1) [%] | PKB-kinase (spa) Assay 2, % inhibition of kinase activity (PKB; Assay 2) [%] | Compound | further results |
| --- | --- | --- | --- | --- | --- |
| – | – | – | – | CCC[C@H](NC(=O)[C@H](CCCNC(=N)N)NC(=O)[C@@H]1CCCN1C(=O)[C@@H](N)CCCNC(=N)N)C(=O)NCC(=O)N[C@@H](C)C(=O)N[C@@H](CCC(C)C)C(N)=O [60006-18A] (H-RPR[Nva]GA[hLeu]-NH2; N-terminus and C-terminus assumed) | IC50 (PKA; Table 10, accurate IC50 curve, peptide moiety alone, read-out: IC50 μM PKA): > 100 µM; % Inhibition PKA (PKA; peptide moiety alone): 11%; IC50 (PKB; Table 10, accurate IC50 curve, peptide moiety alone, read-out: IC50 μM PKB): 9.45 µM; % Inhibition PKB I (PKB; [1]): 47%; % Inhibition PKB II (PKB; plate screening, peptide moiety alone, PKB II): 52% |
| – | – | – | – | CC(C)CC[C@H](NC(=O)[C@H](CN)NC(=O)[C@H](CO)NC(=O)[C@@H](NC(=O)[C@H](CCCNC(=N)N)NC(=O)[C@@H]1CCCN1C(=O)[C@@H](N)CCCNC(=N)N)[C@@H](C)O)C(N)=O [TY 60002-96, Arg-Pro-Arg-Thr-Ser-Dap-Hol] (H-RPRTS[Dap][hLeu]-NH2; N-terminus and C-terminus assumed) | IC50 (PKA; Table 3, linear 7-mer peptides, read-out: Activity PKA): > 40 µM; IC50 (PKB; Table 3, linear 7-mer peptides, read-out: Activity PKB): 5 µM |
| 93 | 94 | 69 | 71 | 60020-36: Arg-Pro-Arg-Dap-Glu(Gly-5-aminoethylsulfonamide isoquinoline)-Orn-Hol (RPR[Dap]E([Gly-X1])[Orn][hLeu]) | – |
| 97 | 97 | 60 | 54 | 60020-50: Arg-Pro-Arg-Abu-Glu(Gly-5-aminoethylsulfonamide isoquinoline)-Dab-Hol (RPR[Abu]E([Gly-X1])[Dab][hLeu]) | – |
| – | – | – | – | C[C@@H](O)[C@H](NC(=O)[C@H](CCCNC(=N)N)NC(=O)[C@@H]1CCCN1C(=O)[C@@H](N)CCCNC(=N)N)C(=O)N[C@@H](CCC(=O)NCCCCC(=O)NCCNS(=O)(=O)c1cccc2cnccc12)C(=O)N[C@@H](CO)C(=O)N[C@@H](Cc1ccccc1)C(N)=O [compound 6090] (H-RPRTE([Ava-Ethylenediamine-Isoquinoline5sulfonyl])SF-NH2; N-terminus assumed) | IC50 (PKA; [2]): 0.6 µM; IC50 (PKB; [3]): 5.6 µM |
| 94 | 95 | 47 | 37 | 60020-51: Arg-Pro-Arg-Abu-Glu(Gly-5-aminoethylsulfonamide isoquinoline)-Orn-Phe (RPR[Abu]E([Gly-X1])[Orn]F) | – |
| – | – | – | – | C[C@@H](O)[C@H](NC(=O)[C@H](CCCNC(=N)N)NC(=O)[C@@H]1CCCN1C(=O)[C@@H](N)CCCNC(=N)N)C(=O)N[C@@H](CC(=O)NCCNS(=O)(=O)c1cccc2cnccc12)C(=O)N[C@@H](CO)C(=O)N[C@@H](Cc1ccccc1)C(N)=O [compound 6130] (H-RPRTD([Ethylenediamine-Isoquinoline5sulfonyl])SF-NH2; N-terminus assumed) | IC50 (PKA; [2]): 0.053 µM; IC50 (PKB; [3]): 9.5 µM |
| – | – | – | – | CCCC[C@H](NC(=O)[C@H](CCCNC(=N)N)NC(=O)[C@@H]1CCCN1C(=O)[C@@H](N)CCCNC(=N)N)C(=O)N[C@@H](CCC(=O)NCC(=O)NCCNS(=O)(=O)c1cccc2cnccc12)C(=O)N[C@@H](CCN)C(=O)N[C@@H](Cc1ccccc1)C(N)=O [60020-57, Arg-Pro-Arg-Nle-Glu-(Gly-5-aminoethylsulfonamide)-Dab-Phe] (H-RPR[Nle]E([Gly-Ethylenediamine-Isoquinoline5sulfonyl])[Dab]F-NH2) | inhibition at 1 µM (PKA; Assay 1, read-out: PKA-kinase Assay 1, % inhibition of kinase activity): 95%; inhibition at 1 µM (PKA; Assay 2, read-out: PKA-kinase Assay 2, % inhibition of kinase activity): 96%; IC50 (PKA; Table 1, most preferred compounds, read-out: IC50 PKA): 0.21 µM; inhibition at 1 µM (PKB; Assay 1, read-out: PKB-kinase (spa) Assay 1, % inhibition of kinase activity): 92%; inhibition at 1 µM (PKB; Assay 2, read-out: PKB-kinase (spa) Assay 2, % inhibition of kinase activity): 93%; IC50 (PKB; Table 1, most preferred compounds, read-out: IC50 PKB): 0.07 µM |
| 94 | 95 | 47 | 48 | 60020-2: Arg-Pro-Arg-Dap-Glu(5-aminoethylsulfonamide isoquinoline)-Dab-Hol (RPR[Dap]E(X1)[Dab][hLeu]) | – |
| – | – | – | – | CCCC[C@H](NC(=O)[C@H](CCCNC(=N)N)NC(=O)[C@@H]1CCCN1C(=O)[C@@H](N)CCCNC(=N)N)C(=O)N[C@@H](CCC(=O)NCCNS(=O)(=O)c1cccc2cnccc12)C(=O)N[C@@H](CO)C(=O)N[C@@H](Cc1ccccc1)C(N)=O [compound 6128] | IC50 (PKA; [2]): 0.1 µM; IC50 (PKB; [3]): 9 µM |
| 95 | 95 | 54 | 67 | 60020-44: Arg-Pro-Arg-Orn-Glu(Gly-5-aminoethylsulfonamide isoquinoline)-Orn-Hol (RPR[Orn]E([Gly-X1])[Orn][hLeu]) | – |
| 96 | 97 | 71 | 57 | 60020-9: Arg-Pro-Arg-Orn-Glu(5-aminoethylsulfonamide isoquinoline)-Dab-Phe (RPR[Orn]E(X1)[Dab]F) | – |
| – | – | – | – | 60002-88 (RPRT[Abu][Dap]F) [Compound 60002-88] | % Inhibition PKA (PKA; peptide moiety alone): −3%; % Inhibition PKB I (PKB; [1]): 40% |
